These results are taken from US20240384003A1 (PRECISION BIOLOGICS, published 2024).

The assay has as its target T1, CEACAM5-D2-312* (human, UniProt P06731 35-311).
T1 sequence (looked up): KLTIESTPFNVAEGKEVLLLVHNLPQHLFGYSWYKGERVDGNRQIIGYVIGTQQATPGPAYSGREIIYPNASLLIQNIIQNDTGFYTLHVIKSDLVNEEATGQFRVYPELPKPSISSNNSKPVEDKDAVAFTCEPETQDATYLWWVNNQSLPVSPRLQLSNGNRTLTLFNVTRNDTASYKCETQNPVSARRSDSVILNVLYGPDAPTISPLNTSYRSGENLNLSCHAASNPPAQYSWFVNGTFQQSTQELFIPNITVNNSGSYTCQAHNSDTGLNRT
Nature of the assay: ELISA on truncated CEACAM5 from transfected-cell supernatant. The protocol:
Different truncated C-terminus CEACAM6 gene constructs were designed as illustrated in FIG. 13. […] Different truncated C-terminus CEACAM5 gene constructs were designed as illustrated in FIG. 15. The procedure for the expression of the truncated C-terminus constructs was the same as to the method described above. All deletions were transfected into HEK293T cells, harvest the cell pellet and/or supernatant after 48-72 hours. Supernatant binding activity was quantitated by ELISA.
Background: An ELISA detects its analyte on a solid surface through an enzyme-linked reagent.

B1: NEO-201 (antibody, human IgG1, kappa, V domains shown)
VH: QVQLVQSGAEVKKPGASVKVSCKASGYTFTDYAMHWVRQAPGQRLEWMGLISTYSGDTKYNQNFQGRVTMTVDKSASTAYMELSSLRSEDTAVYYCARGDYSGSRYWFAYWGQGTLVTVSS
VL: DIQMTQSPSSLSASVGDRVTITCQASENIYGALNWYQRKPGKSPKLLIYGASNLATGMPSRFSGSGSGTDYTFTISSLQPEDIATYYCQQVLSSPYTFGGGTKLEIKR
notes: also called H16C3-Abb*
For the molecule B1, the binding result is on record as “no binding”.
